The record followed here is publication PMC8472993, “A Novel Glutathione S-Transferase Gtt2 Class (VpGSTT2) Is Found in the Genome of the AHPND/EMS Vibrio parahaemolyticus Shrimp Pathogen” (Toxins, 2021).

The target in assay [1] is Glutathione S-transferase class Gtt2 from Vibrio parahaemolyticus (VpGSTT2) (Vibrio parahaemolyticus (strain FIM-S1708+)). The assay can be described thus: SEC; Superdex 75 HR 10/300 GL on an Äkta Pure, calibrated with molecular-weight standards (conalbumin, ovalbumin, carbonic anhydrase, ribonuclease A, aprotinin); VpGSTT2 eluted at 10.8 mL, corresponding to 48.2 kDa; protein dialysed against Tris-HCl, 150 mM NaCl, pH 7.2.

The target in the next assay is T1, VpGSTT2 (Vibrio parahaemolyticus, UniProt Q87HB4).
T1 construct: gene VPA1051; Full coding region, synthetic E. coli-optimised gene in pET11a; C-terminal PreScission site and 6xHis tag (tag removal described); E. coli BL21(DE3) Gold
T1 sequence (Q87HB4 1-204): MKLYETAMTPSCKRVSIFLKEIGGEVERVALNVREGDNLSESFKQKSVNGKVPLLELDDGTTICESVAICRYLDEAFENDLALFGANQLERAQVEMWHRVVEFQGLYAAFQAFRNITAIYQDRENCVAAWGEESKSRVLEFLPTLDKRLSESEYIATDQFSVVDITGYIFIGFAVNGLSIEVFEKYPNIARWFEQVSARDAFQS
The assay can be described thus: spectrophotometric CDNB conjugation at […] nm, initial rates. The format is biochemical. Conditions: read-out: CDNB / Km; CDNB 0.3-2 mM, GSH 0.5 mM fixed; phosphate buffer (0.1 M NaH2PO4 pH 6.5), room temperature.

Regarding “Glutathione S-transferase class Gtt2 from Vibrio parahaemolyticus (VpGSTT2) (enzyme)”, in assay [1], the stoichiometry N was found to be 2.

For the compound `O=[N+]([O-])c1ccc(Cl)c([N+](=O)[O-])c1` [CDNB, 1-chloro-2,4-dinitrobenzene], on VpGSTT2, the Km is 1000 µM.
